Data on one molecule can be found in paper PMC11937480 (Communications Biology, 2025).

For the experiment, the target named is T1, HA-ZNF449 (UniProt Q6P9G9 1-518).
T1 sequence (looked up): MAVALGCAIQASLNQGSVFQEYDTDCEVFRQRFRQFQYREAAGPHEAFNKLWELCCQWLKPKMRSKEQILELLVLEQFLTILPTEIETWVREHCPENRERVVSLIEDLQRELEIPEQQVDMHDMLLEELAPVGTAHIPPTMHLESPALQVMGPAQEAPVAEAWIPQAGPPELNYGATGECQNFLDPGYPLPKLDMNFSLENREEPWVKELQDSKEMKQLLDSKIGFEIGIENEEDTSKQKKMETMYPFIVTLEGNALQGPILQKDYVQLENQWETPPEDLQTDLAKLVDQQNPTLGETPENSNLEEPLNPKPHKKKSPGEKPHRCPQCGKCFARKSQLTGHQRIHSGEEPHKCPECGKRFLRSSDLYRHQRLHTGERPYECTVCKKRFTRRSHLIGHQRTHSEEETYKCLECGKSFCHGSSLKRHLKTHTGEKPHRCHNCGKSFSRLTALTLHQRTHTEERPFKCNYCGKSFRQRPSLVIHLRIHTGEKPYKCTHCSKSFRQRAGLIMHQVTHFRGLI
The experiment can be described thus: pull-down.

B1: GST-fused PTOV1 (125–283 aa) truncation (domain or fragment, UniProt Q86YD1 125-283, looked up)
chain: VNQGENLETDQWPQKLIMQLIPQQLLTTLGPLFRNSQLAQFHFTNRDCDSLKGLCRIMGNGFAGCMLFPHISPCEVRVLMLLYSSKKKIFMGLIPYDQSGFVSAIRQVITTRKQAVGPGGVNSGPVQIVNNKFLAWSGVMEWQEPRPEPNSRSKRWLPS
B1: the binding result is “binds”.
